tested on: TO-3-N3 (biotin conjugate); test: pull-down binding Z-score (relative to library population); higher = stronger binding; conditions: RNA library: Library-2
Outline: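 Streptavidin beads with 100 pmol of biotin-conjugated small molecule were incubated for 60 min at 25 °C with 1 μg of heat-folded Cy5- or Cy3-end-labelled RNA library in phosphate/NaCl/KCl buffer. Bound RNA was eluted in hot SDS after three washes and hybridised to a DNA barcode microarray at 55.5 °C for 20 h. Each binding score is a library-referenced Z-score, computed after beads-only subtraction and a trimmed mean of barcoded replicate probes.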

Point of comparison: “AGUAUGGAUUAAAUUUAUAUUUUCCUCGAUACU [hsa-mir-8084]”, “pull-down binding Z-score” value 0.413. Against it:
- AGGACACAGGCUGGCACUGAGGUCCC [hsa-mir-6887] — lower, 0.0768
- AGGACGGUGCGCCUUGUUUCCC [hsa-mir-3132] — lower, -0.376
- AGGAGAAGGUGAGACCAAUGUCCUGGGUGCCACUCCU [hsa-mir-6124] — lower, -0.524
- AGGAGGGUCC [hsa-mir-3141] — higher, 0.419
- AGGAGUUCACU [hsa-mir-1183] — lower, -0.276
- AGGCAACAUGGCCGAGAGGCCGGGGCCU [hsa-mir-564] — lower, -0.144
- AGGCACAUAUGUGAACAUUGUACCA [hsa-mir-5707] — lower, 0.023
- AGGCAUGGGUGGCU [hsa-mir-8085] — lower, 0.237
- AGGCAUUAGGAUCCUUAUUCUUGCCU [hsa-mir-4788] — lower, -0.238
- AGGCCAUACGUGUUGGAGAUU [hsa-mir-4461] — higher, 0.627
- AGGCCGACGAGCAGCGCAUCCUCUUACCCGGCUA [hsa-mir-138-2] — lower, 0.181
- AGGCCGUUGCCAAUCAGAGAACGGCUA [hsa-mir-138-1] — higher, 1.23
- AGGCCUGAGUCUCUCUGCUGCAGAUGGGCUC [hsa-mir-422a] — lower, -0.112
- AGGCUCUGCAAGAUCAACCGAGCA [hsa-mir-330] — lower, 0.196
- AGGCUCUGGGUCCGGCUUACUCCCUAGCUUACUGUCCUCAGAACCC [hsa-mir-6071] — lower, -0.173
- AGGCUGGUCUCAAACUCCU [hsa-mir-5096] — lower, -0.118
- AGGCUGUCUUCAUUCCCUCUUGACCACCC [hsa-mir-6795] — higher, 1.19
- AGGCUUGGCACUUGAGGGAAAGCCU [hsa-mir-8059] — higher, 0.451
- AGGGACCCCCGGAGUCUGUCACGGUCUCA [hsa-mir-6784] — lower, -0.0169
- AGGGCAAGUCCAAAGGUAUACAGUUGGUCUGUUCA [hsa-mir-7107] — lower, -0.459
- AGGGCAGCUCCCAUGACUGCCUGACCGC [hsa-mir-6880] — lower, 0.15
- AGGGCAGGGGUGUGGCU [hsa-mir-4751] — higher, 3.21
- AGGGCCUUCUGAGCCCAGGUCCG [hsa-mir-6716] — higher, 0.611
- AGGGCUGGGAUUACUAAAGCCCU [hsa-mir-1266] — lower, -0.0287
- AGGGGACACGGGCAAAGACUUGGGGGUUCCUGGGACCCUCAGACGUGUGUCCUCU [hsa-mir-877] — lower, 0.252
- AGGGGUCAUAUCUCUUCUCAGGGAAAGCAGGAGCCCUUCAGCAGGGUCAGGGCCCCU [hsa-mir-6891] — higher, 0.705
- AGGGUGGAGCCCACUGUGGCUCCUGACUCAGCCCU [hsa-mir-6893] — lower, -0.0543
- AGGUAGUGAUAUGUGCAUCUACU [hsa-mir-17] — lower, 0.0812
- AGGUAGUGUGAUUACCCAACCUACU [hsa-mir-93] — lower, -0.148
- AGGUAGUGUUUAGUUAUCUACU [hsa-mir-20a] — lower, -0.264
- AGGUCUCCUGGCAU [hsa-mir-4256] — lower, -0.274
- AGGUGCUAGGUCGGCCUCGGC [hsa-mir-5787] — lower, 0.284
- AGGUGGAAAGGGAGCAGGAGCAUCGUCUUUAAGAGGGUCAGGUACCUUUGCUCUUA [hsa-mir-6083] — lower, -0.0151
- AGGUUCUGCUGGCUGAGAACCU [hsa-mir-3667] — lower, -0.215
- AGGUUGGCUGGGCCAGGCCUGACCU [hsa-mir-4722] — lower, 0.0532
- AGGUUUAUGACUGGGCAUUUCUCACCCAAUGCCCAAUAUUGAACUU [hsa-mir-4431] — lower, -0.564
- AGGUUUGUGUCCAAUACAGUCCACACCU [hsa-mir-3200] — lower, -0.745
- AGUAGCUGGGAAUACAGGUGUGUGCCACCAUGCCUCUACAAGCUACC [hsa-mir-7851] — lower, -0.469
- AGUAUUUUAAUCAUAGAUUGUAUUUAGUUAGUUUUUAAUACU [hsa-mir-4637] — lower, -0.732
- AGUCACUUACACUACAUGUCACU [hsa-mir-892a] — lower, -0.926
- AGUCACUUAGAUUACAUGUCACU [hsa-mir-892c] — lower, 0.00628
- AGUCACUUAGAUUACAUGUGACU [hsa-mir-888] — lower, 0.0487
- AGUCCAAAGGAAAGGGCU [hsa-mir-8077] — higher, 0.999
- AGUCCGUGCAUCCGCCCUUCGAUGCUUGGGUU [hsa-mir-3182] — lower, -0.405

From the supplement of paper PMC11865577
